Source: publication PMC7583250, “Type III ATP synthase is a symmetry-deviated dimer that induces membrane curvature through tetramerization” (Nature Communications, 2020)

How the values were obtained:
[1] = target: type III mitochondrial F1Fo-ATP synthase (monomer) in complex with IF1 (Tetrahymena thermophila (endogenous in its mitochondria)) (UniProt Q951C1); test: cryo-EM structure; native ATP synthase tetramer particles of the same sample; 3.3 Å overall, Fo tetramer membrane region 3.1 Å; two dimer models refined into the Fo-tetramer map
[2] = target: type III mitochondrial F1Fo-ATP synthase (monomer) in complex with IF1 (Tetrahymena thermophila (endogenous in its mitochondria)) (UniProt Q951C1); test: cryo-EM structure; native IF1-inhibited ATP synthase dimer purified from T. thermophila mitochondria in digitonin (25 mM Hepes/KOH pH 7.5, 25 mM KCl, 5 mM MgCl2, 0.1% w/v digitonin); 2.7 Å overall, masked refinements 2.5-3.1 Å
[3] = target: F1 inhibitor protein IF1 (Tetrahymena thermophila (endogenous in its mitochondria)); test: as above
ATPTT1 = target: T1, ATPTT1 (Tetrahymena thermophila, UniProt I7LVQ8); test: cryo-EM structure; type: binding; conditions: co-purified native cofactor in pocket of two Rossmann folds; oxidation state not stated
T1 construct: gene TTHERM_00137990; 55-kDa Fo-wing subunit of native mitochondrial ATP synthase dimer, purified in digitonin from T. thermophila mitochondria
T1 sequence (I7LVQ8 1-480): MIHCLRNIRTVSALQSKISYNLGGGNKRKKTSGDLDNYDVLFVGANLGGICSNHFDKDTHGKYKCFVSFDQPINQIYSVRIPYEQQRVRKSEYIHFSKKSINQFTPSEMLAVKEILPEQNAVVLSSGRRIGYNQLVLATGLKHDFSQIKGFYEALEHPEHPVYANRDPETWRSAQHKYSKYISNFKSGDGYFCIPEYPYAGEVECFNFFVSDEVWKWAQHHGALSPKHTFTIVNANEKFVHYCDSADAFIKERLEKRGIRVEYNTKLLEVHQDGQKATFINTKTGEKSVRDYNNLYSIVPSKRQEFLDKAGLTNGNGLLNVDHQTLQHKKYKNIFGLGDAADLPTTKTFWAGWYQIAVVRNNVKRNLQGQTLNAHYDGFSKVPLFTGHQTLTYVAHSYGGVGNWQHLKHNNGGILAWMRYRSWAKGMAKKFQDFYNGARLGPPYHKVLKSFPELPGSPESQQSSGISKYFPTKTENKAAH

[4] = target: the molecule itself; test: cryo-EM structure; native IF1-inhibited ATP synthase dimer purified from T. thermophila mitochondria in digitonin (25 mM Hepes/KOH pH 7.5, 25 mM KCl, 5 mM MgCl2, 0.1% w/v digitonin); 2.7 Å overall, masked refinements 2.5-3.1 Å

## type III mitochondrial F1Fo-ATP synthase (monomer) in complex with IF1 (from UniProt Q951C1 1-446)
[1]
  stoichiometry N: 4
[2]
  stoichiometry N: 2

## F1 inhibitor protein IF1 (natural protein)
[3]
  stoichiometry N: 2

## NC(=O)c1ccc[n+]([C@@H]2O[C@H](COP(=O)([O-])OP(=O)(O)OC[C@H]3O[C@@H](n4cnc5c(N)ncnc54)[C@H](O)[C@@H]3O)[C@@H](O)[C@H]2O)c1 [NAD]
ATPTT1
  cryo-EM structure: in ATPTT1 the binding pocket formed by two Rossmann folds contains the co-factor

B1: ATP synthase subunit-a (natural protein, UniProt Q951C1 1-446, looked up)
chain: MGRENVLPVHNDVYEDFVFTTPYFQPESTFKSVPKLFSDILLGGVEWVYTTSESVLAYDYKLWYLWSGVSNLDESFDMFFNQYWALSLSTSVFQLFYAVILDRYLSVLFQNTPYTNDWFRMMLHSKETALIWLYHPELSWHINGLNQFFTYFYGGILEFVYFDKSNPDMCILVHTLWIHLLILFLIFTGFVTILFSFYGNPNTEENTIDSDYLAASGTVEAEKEITSIDDYLGLVFAIAYVFGVFFYVHGWTSMLSHAVLLLSCYSIIIMFLFILGMPTLLLYDFGIFFLAYLKGAGKYISSVAEMMFDYTACLVFYIRILAQWIRVVLMVVTFISLSHYVSDFDITNSALIGSENQSDSMNELNTNFSMTYYILTVLPGKFIYWIYEILHTFFVVCSQFVAFFAIVFWLFLFLYTFFIIEKHEDFFSKKREERKKKLKELWNLKN
notes: ATP synthase subunit a, Tetrahymena thermophila; overall length of 446 amino acids, with 170- and 38-amino acid N- and C-terminal extensions; source: endogenous, purified from T. thermophila mitochondria within the ATP synthase (digitonin, sucrose cushion, Superose 6)
[4]
  binding result: binds
